Test results taken from the DeepSol protein solubility set.

assay: soluble on expression in E. coli; label from the status in PepcDB or PDB records

Row | Sequence | soluble on expression in E. coli
1 | MSVEPTSVDPSPDKSAPANASGRADASARPSTGESARPSGGETPEVLRPHAEVTFAAELAALAAQDDRPRPVRWRLSPWAVATYLLGGTLPDGTVITPKYVGPRRIVEVAVTTLATDRALLLLGVPGTAKTWVSEHLAAAVSGDSTLLVQGTAGTPEEAIRYGWNYAQLLAHGPSRDALVPSPVMRAMADGMTARVEELTRVPADVQDTLITILSEKTLPIPELGQEVQAVRGFNLIATANDRDRGVNELSSALRRRFNTVVLPLPESADAEVDIVSRRVDQIGRSLDLPAVPDGVDEIRRVVTVFRELRDGVTTDGRTKLKSPSGTLSTAEAISVVTNGLALAAHFGDGVLRASDVAAGILGAVVRDPAADRVIWQEYLEAVVRERDGWMDFYRACREVSALEHHHHHH | soluble
2 | MNKKELIDRVAKKAGAKKKDVKLILDTILETITEALAKGEKVQIVGFGSFEVRKAAARKGVNPQTRKPITIPERKVPKFKPGKALKEKVK | soluble
3 | MGSDKIHHHHHHMINLKELKILHTSDWHLGVTSWTSSRPVDRREELKKALDKVVEEAEKREVDLILLTGDLLHSRNNPSVVALHDLLDYLKRMMRTAPVVVLPGNHDWKGLKLFGNFVTSISSDITFVMSFEPVDVEAKRGQKVRILPFPYPDESEALRKNEGDFRFFLESRLNKLYEEALKKEDFAIFMGHFTVEGLAGYAGIEQGREIIINRALIPSVVDYAALGHIHSFREIQKQPLTIYPGSLIRIDFGEEADEKGAVFVELKRGEPPRYERIDASPLPLKTLYYKKIDTSALKSIRDFCRNFPGYVRVVYEEDSGILPDLMGEIDNLVKIERKSRREIEEVLRESPEEFKEELDKLDYFELFKEYLKKREENHEKLLKILDELLDEVKKSEA | not soluble
4 | MSLESVGDVLKRQPSRFHYQDLVQKIMKDPDVAAFVQQESLNQDELNRSISKFNQYITERDKFLRGDTDYIAKGYKPILVMNHGYADVSYEETPELIAAEKEAAIKKRLNLINFPSSLKNVSFLDVYRDDVQRLTVLKRMIEFVNDYPNNLKGLYLYGDFGVGKSFMVAALAHDLSEKRGVSSTLLHYPSFVIDVKNAIGDGNVKTLVDEIKLSEVLILDDIGAEQSTAWVRDEILQVILQYRMQENLPTFFTSNFNFEDLEKHFAKGKNGNDETWEARRVMERIRYLAEETRLEGVNRREGHHHHHH | soluble
5 | MREINMILYIHIPFCENKCGYCAFNSYENKHGLKEEYTQALCLDLKHALSQTDEPIESVFIGGGTPNTLSVKAFERIFESIYQHASLSLDCEITTEANPELITKAWCQGLKGLGINRLSLGVQSFREDKLLFLERQHSKNIAPAIETILKSGIENISIDLIYNTPLDNENSLKEELKLAKELPINHLSAYALSVEKNTNLEKNAKKPSCAHFDNVVREILEGFSFKQYEVSNYARNYQVKHNLAYWGAKDYLGCGAGAVGCVANERFFAKKLIENYIKDPLQRQVETLNKQDKRLEKLFLGLRCVLGVELSFLDENKVKFLIEENKAFIKNNRLIASDFFMADEMALWLLLEHHHHHH | not soluble
6 | MAEILERSGYLVKVRVEVPADRVKASYEALLKDLASRVRVPGFRPGKAPLKVVEARLGREALLQDLKERLVEETYPEAVRELGLSPVAARVVEQDLSEGEGFRYVAEVENYPEVRLPDWRSFALEVSPPEVTEEMVEKALEELRQRYAELVPVEREAQEKDHLFVRTEEGAEFPIDLAKALPHVREALLGKKAGDVVMVPVLNDKGEKVREVRTEVLEVKTLKLPELDEEFAKTLEAESLEDLKNRVRESLKRQAERAYEEARERAFLEKLAEGLEVEIPPSMLRAEERHLLEHLAEDLYRQGISLEAYLEALKEKGELEKFQEDLRKEAEKRVRIALAREKLAEELNPEVSEEEWQAYLQAAARAYGVAVQDLRRQFGEEGLARLKERLRQDKAVQEALKALG | soluble
7 | MITYKNILIAVDGSHEAEWAFNRAVGVAKRNDAKLTIVNVIDSRTYSSYEVYDAQFTEKSKHFAEELLNGYKEVATNAGVKDVETRLEFGSPKSIIPKKLAHEINADLIMSGTSGLNAVERFIVGSVSESIVRHAPCDVLVVRTEELPADFQPQVATTQLREKYQN | not soluble
8 | MGSDKIHHHHHHMVKGLDMIFYLHGFDATSPGNHEKMRQLQFIDPDVRLLSYSTLHPKHDMQHLLKEVAKQMQHTDDPEPLMVGVGLGAYWAERIGFLNGLKSVLINPNLHPENNMQGKIDRPEEYADIASKCVSEFRLKNTHRAMCIFSVNDDVLDCKANAQELSEYYAIEWDDVQPHKFPQLAAHLPKIKAFKLA | not soluble
9 | MRDYKQLNGLALAYVGDAIYEIYIRDYLVSLGQTKPNVLHRMATHYVSAKAQASLMQAMLAGEMLTEEEEVMYKRGRNAKSHTFAKNADVTTYRVATGFESLMGYLHLTQQKERLEELINWCIKKVGETNEK | not soluble
